How the values were obtained:
[1] = Competitive ELISA screening of hybridoma supernatants on E1-OVA (55), inhibitor MDA; assay type: binding; conditions: for E1-OVA (55) Binding, OD650 nm +MDA: hybridoma supernatant in the presence of 10 μg/mL MDA; for % Inhibition by 10 μg/mL of MDA: inhibition of mAb/E1-OVA (55) binding
Description: (§1) Competitive ELISA was used to assess the presence of anti-Ecstasy-class antibodies in animal sera, hybridoma supernatants, and monoclonal antibody (mAb) samples as well as to estimate the level of antibody cross reactivity to amphetamine (Amph) and methamphetamine (mAmph). Antisera and antibody samples were used at the dilution giving a response of about OD=1 at 650 nm (OD650 nm) in an indirect ELISA. Hybridoma supernatants were diluted 1:2 in PBS. (±)-MDMA, (±)-MDA, (±)-amphetamine, and (±)-methamphetamine were used as inhibitors (Cerilliant Corporation, Round Rock, TX). Microtiter ELISA plates were coated and blocked as described above for indirect ELISA. The inhibitors were serially diluted in PBS. 25 μL of the diluted inhibitor was mixed with 25 μL of fixed appropriate antiserum or antibody sample dilution. The mixture was incubated over the E1-OVA (55) solid phase for 1 h. The plates were washed as described above and the bound antibodies were detected with anti-rabbit or anti-mouse IgG HRP-conjugates and TMB substrate as described above.
(§2) The supernatants were screened in a competitive ELISA for the presence of anti-ecstasy compound monoclonal antibodies (mAbs) as follows. 25 μL of the hybridoma supernatant was mixed with equal volume of PBS alone or containing 20 μg/mL inhibitor (MDA or MDMA) were incubated for 1 h in the wells of E1-OVA (55) coated ELISA plates. The plates were washed and the presence of bound mAbs were detected using goat anti-mouse IgG (Fc)-HRP conjugate and TMB substrate as described above. The level of inhibition of mAb/E1-OVA (55) binding in the presence of the inhibitor was estimated using a Percent (%) Inhibition calculated by the below formula:
(§3) [formula] • where “OD650 nm w/o Inhibitor” is the binding response of the antibody sample diluted in PBS alone (with no inhibitor), and the “OD650 nm with Inhibitor” is the binding response of the same antibody sample in the presence of 10 μg/mL of inhibitor (i.e., MDA or MDMA).

[2] = Competitive ELISA of purified antibodies on E1-OVA (55), MDMA and MDA reactivity; assay type: binding; conditions: 10,000-0.1 ng/mL range of drug concentration
Description: as §1
(§4) The anti-ecstasy class mAbs were purified from clarified and filtered hybridoma culture supernatants on a recombinant Protein A Sepharose Fast Flow (GE Life Sciences, Boston USA), dialyzed against PBS containing 0.02% sodium azide and stored at 4° C. The purified mAbs were tested for MDA and MDMA reactivity as well as amphetamine (Amph) and methamphetamine (mAmph) cross reactivity in a competitive assay.

[3] = Competitive ELISA of purified antibodies on E1-OVA (55), amphetamine and methamphetamine cross reactivity; assay type: binding
Description: as §1, §4

[4] = Competitive ELISA screening of hybridoma supernatants on E1-OVA (55), inhibitor MDMA; assay type: binding; conditions: for E1-OVA (55) Binding, OD650 nm +MDMA: hybridoma supernatant in the presence of 10 μg/mL MDMA; for % Inhibition by 10 μg/mL of MDMA: inhibition of mAb/E1-OVA (55) binding
Description: as §1, §2, §3

[5] = system: E1-OVA (55); assay: ELISA binding of hybridoma supernatant to E1-OVA (55) coated plates, without inhibitor; conditions: hybridoma supernatant mixed with PBS alone
Description: All ELISA steps were performed at rt. Wells of a Nunc Maxi-Sorp™ flat-bottom ELISA plates (ThermoFisher Scientific, Waltham, MA) were coated with 50 μL E1-OVA (55), E2-OVA (65), and E3-OVA (72) at a concentration of 1 μg/mL in PBS for 1 h. The plates were flicked dried and remaining binding sites were blocked with 200 μL per well of blocking solution (0.5% casein, 0.05% (v/v) Tween 20 in PBS) for one hour. Plates were washed six times with MilliQ water containing 0.05% (v/v) Tween 20 on Biotek 405 LS plate washer equipped with microplate Biostacker 3 (Biotek, Winooski, VT). 50 μL of serially diluted antibody samples (serial dilutions of serum, hybridoma supernatant, or monoclonal antibodies in PBS) were added to each well and incubated for one hour. Unbound antibodies were removed by washing as described above, and 50 μL of secondary goat anti-rabbit IgG HRP or goat anti-mouse IgG (Fc)-HRP conjugate (ThermoFisher Scientific, USA), diluted 1:3,000 in the blocking solution was added to each well for detection bound rabbit or mouse antibody, respectively. Plates were incubated for one hour, washed and 100 μL of TMB substrate (Moss, Pasadena, MD) was added for 15 min to determine bound peroxidase. Optical density (OD) of the samples at 650 nm was measured using an ELISA plate reader (Molecular Devices LLC., San Jose, CA). The titer of each serum sample was designated as the maximum dilution that yielded at least twice the absorbance of the same dilution of the nonimmune control serum.
as §2
[formula] • where “OD650 nm w/o Inhibitor” is the binding response of the antibody sample diluted in PBS alone (with no inhibitor), and the “OD650 nm with Inhibitor” is the binding response of the same antibody sample in the presence of 10 μg/mL of inhibitor (i.e., MDA or MDMA). […]

[6] = Prototype EMIT ecstasy assay, cross-reactivity with methamphetamine; assay type: biochemical; conditions: conjugate Compound 58; negative urine pool
[7] = Prototype EMIT ecstasy assay, cross-reactivity with amphetamine; assay type: biochemical; conditions: conjugate Compound 58; negative urine pool

Molecule	E1-OVA (55) Binding, OD650 nm +MDA [1]	% Inhibition by 10 μg/mL of MDA [1]	relative sensitivity to MDMA and MDA in competitive ELISA [2]	cross reactivity in the presence of 1,000 ng/ml of Amph or mAmph [3]	E1-OVA (55) Binding, OD650 nm +MDMA [4]	% Inhibition by 10 μg/mL of MDMA [4]	E1-OVA (55) Binding, OD650 nm w/o inhib [5]	Concentrations (μg/mL) of Structurally Related Compounds Equivalent to 500 ng/mL MDMA Cutoffs, (+/−) mAmph [6]	Concentrations (μg/mL) of Structurally Related Compounds Equivalent to 500 ng/mL MDMA Cutoffs, (+/−) Amph [7]
178K 1B2 mAb: mouse monoclonal antibody raised against E1-KLH (56); IgG2b, κ; heavy chain SEQ ID NO 84, light chain SEQ ID NO 108 (antibody) heavy: MNFGLSLIFLALILKGVQCEVQLVESGGDLVKPGGSLKLSCAASGFTFTNYVMSWVRQTPDKRLEWVATINSGGRYAYYPDSVKGRFTISRDNAKNTLYLQMSSLKSEDTAMYYCAGGNNLDYWGQGTTLTVSSAKTTPPSVYPLAPGCGDTTGSSVTLGCLVKGYFPESVTVTWNSGSLSSSVHTFPALLQSGLYTMSSSVTVPSSTWLSQTVTCSVAHPASSTTVDKKLEPSGPISTIKPCPPCKECHKCPAPNLEGGPSVFIFPPNIKDVLMISLTPKVTCVVVDVSEDDPDVQISWFVNNVEVHTAQTQTHREDYNSTIRVVSALPIQHQDWMSGKEFKCKVNNKDLPSPIERTISKIKGLVRAPQVYILPPPAEQLSRKDVSLTCLVVGFNPGDISVEWTSNGHTEENYKDTAPILDSDGSYFIYSKLNMKTSKWEKTDSFSCNVRHEGLKNNYLKKTISRSPGK light: MRFSAQLLGLLVLWIPGSTADIVMTQAAFSNPVTLGTSASISCRSSKSLLQRNGITYLYWYLQKPGQSPQLLIYRLSNLASGVPDRFSSSGSGTDFTLRISRVEAEDVGVYYCGQDLELPYTFGGGTKLEIKRADAAPTVSIFPPSSEQLTSGGASVVCFLNNFYPKDINVKWKIDGSERQNGVLNSWTDQDSKDSTYSMSSTLTLTKDEYERHNSYTCEATHKTSTSPIVKSFNRNEC	0.730 OD650 nm	82%	bind MDMA stronger than MDA	do not show any significant cross reactivity	0.667 OD650 nm	83%	4.000 OD650 nm	–	–
178K 2B7 mAb: mouse monoclonal antibody raised against E1-KLH (56); IgG2b, κ; heavy chain SEQ ID NO 87, light chain SEQ ID NO 111 (antibody) heavy: MNFGLSLIFLALILKGVQCEVQLVESGGDLVRPGGSLKLSCASSGFIFSNYVMSWVRQTPDKRLEWVATINSGGRFTYYPDSVKGRFTISRDNAKNTLFLQMNSLKPEDTAIYYCAGGNNLDYWGQGTTLTVSSAKTTPPSVYPLAPGCGDTTGSSVTLGCLVKGYFPESVTVTWNSGSLSSSVHTFPALLQSGLYTMSSSVTVPSSTWLSQTVTCSVAHPASSTTVDKKLEPSGPISTIKPCPPCKECHKCPAPNLEGGPSVFIFPPNIKDVLMISLTPKVTCVVVDVSEDDPDVQISWFVNNVEVHTAQTQTHREDYNSTIRVVSALPIQHQDWMSGKEFKCKVNNKDLPSPIERTISKIKGLVRAPQVYILPPPAEQLSRKDVSLTCLVVGFNPGDISVEWTSNGHTEENYKDTAPILDSDGSYFIYSKLNMKTSKWEKTDSFSCNVRHEGLKNNYLKKTISRSPGK light: MRFSAQLLGLLVLWIPGSTADIVMTQAEFSNPVTLGTSASISCRSSKSLLQRSGITYLYWYLQKPGQSPQLLIYRMSNLASGVPDRFSSSGSGTDFTLRISRVEAEDVGVYYCGQDMELPYTFGGGTKLEIKRADAAPTVSIFPPSSEQLTSGGASVVCFLNNFYPKDINVKWKIDGSERQNGVLNSWTDQDSKDSTYSMSSTLTLTKDEYERHNSYTCEATHKTSTSPIVKSFNRNEC	0.429 OD650 nm	88%	bind MDMA stronger than MDA	do not show any significant cross reactivity	0.374 OD650 nm	89%	3.497 OD650 nm	50 to 60 µg/mL	40 to 45 µg/mL
